Assay results as given in article PMC11892261, “NONO interacts with nuclear PKM2 and directs histone H3 phosphorylation to promote triple-negative breast cancer metastasis” (Journal of Experimental & Clinical Cancer Research : CR, 2025).
Blank lines part the entries; values can stand above or below the binder they belong to.

B1: His-NONO fusion protein (natural protein, UniProt Q15233 1-471, looked up)
chain: MQSNKTFNLEKQNHTPRKHHQHHHQQQHHQQQQQQPPPPPIPANGQQASSQNEGLTIDLKNFRKPGEKTFTQRSRLFVGNLPPDITEEEMRKLFEKYGKAGEVFIHKDKGFGFIRLETRTLAEIAKVELDNMPLRGKQLRVRFACHSASLTVRNLPQYVSNELLEEAFSVFGQVERAVVIVDDRGRPSGKGIVEFSGKPAARKALDRCSEGSFLLTTFPRPVTVEPMDQLDDEEGLPEKLVIKNQQFHKEREQPPRFAQPGSFEYEYAMRWKALIEMEKQQQDQVDRNIKEAREKLEMEMEAARHEHQVMLMRQDLMRRQEELRRMEELHNQEVQKRKQLELRQEEERRRREEEMRRQQEEMMRRQQEGFKGTFPDAREQEIRMGQMAMGGAMGINNRGAMPPAPVPAGTPAPPGPATMMPDGTLGLTPPTTERFGQAATMEGIGAIGGTPPAFNRAAPGAEFAPNKRRRY
notes: NONO, from the pET28a plasmid; source: E. coli BL21, purified (nickel-nitrilotriacetic acid beads)

Assays:
Conditions in all cases: both partners purified
[1] = target: T1, full-length GST-PKM2, wild type (UniProt P14618 1-531); test: pull-down; GST pull-down: GST-PKM2 (full length, fragments or mutants) incubated with His-NONO at 4 °C for 4 h, five washes, western blot
T1 construct: PKM2, full length (fragments run to residue 531), from the pGEX-6P-1 plasmid; also called GST-PKM2 WT; PKM2-WT; source: E. coli BL21, purified (glutathione S-transferase beads)

[2] = target: T2, GST-PKM2-S406A mutant (UniProt P14618 1-531, S406A); test: as above
T2 construct: Probably made on the full-length GST-PKM2; source: E. coli BL21, purified (glutathione S-transferase beads)

[3] = target: T3, GST-PKM2-R400A mutant (UniProt P14618 1-531, R400A); test: as above
T3 construct: PKM2 point mutant, from the pGEX-6P-1 plasmid; Probably made on the full-length GST-PKM2; source: E. coli BL21, purified (glutathione S-transferase beads)

[4] = target: T4, GST-PKM2-T412A mutant (UniProt P14618 1-531, T412A); test: as above
T4 construct: PKM2 point mutant, from the pGEX-6P-1 plasmid; Probably made on the full-length GST-PKM2; source: E. coli BL21, purified (glutathione S-transferase beads)

[5] = target: T5, GST-PKM2-D476A mutant (UniProt P14618 1-531, D476A); test: as above
T5 construct: PKM2 point mutant, from the pGEX-6P-1 plasmid; Probably made on the full-length GST-PKM2; source: E. coli BL21, purified (glutathione S-transferase beads)

[6] = target: T6, GST-PKM2-D487A mutant (UniProt P14618 1-531, D487A); test: as above
T6 construct: PKM2 point mutant, from the pGEX-6P-1 plasmid; Probably made on the full-length GST-PKM2; source: E. coli BL21, purified (glutathione S-transferase beads)

[7] = target: T7, GST-PKM2-W515A mutant (UniProt P14618 1-531, W515A); test: as above
T7 construct: PKM2 point mutant, from the pGEX-6P-1 plasmid; Probably made on the full-length GST-PKM2; source: E. coli BL21, purified (glutathione S-transferase beads)

[8] = target: T8, GST-PKM2-R526A mutant (UniProt P14618 1-531, R526A); test: as above
T8 construct: PKM2 point mutant, from the pGEX-6P-1 plasmid; Probably made on the full-length GST-PKM2; source: E. coli BL21, purified (glutathione S-transferase beads)

[9] = target: T9, His-PKM2 fusion protein (UniProt P14618 1-531); test: pull-down; GST pull-down: GST-NONO (full length or fragments) on glutathione-Sepharose beads mixed with His-PKM2 for 4 h at 4 °C, five washes, western blot
T9 construct: PKM2, from the pET28a plasmid; source: E. coli BL21, purified (nickel-nitrilotriacetic acid beads)

[10] = target: B1; test: pull-down; GST pull-down: GST-PKM2 (full length, fragments or mutants) incubated with His-NONO at 4 °C for 4 h, five washes, western blot

T8 sequence (P14618 whole entry R526A): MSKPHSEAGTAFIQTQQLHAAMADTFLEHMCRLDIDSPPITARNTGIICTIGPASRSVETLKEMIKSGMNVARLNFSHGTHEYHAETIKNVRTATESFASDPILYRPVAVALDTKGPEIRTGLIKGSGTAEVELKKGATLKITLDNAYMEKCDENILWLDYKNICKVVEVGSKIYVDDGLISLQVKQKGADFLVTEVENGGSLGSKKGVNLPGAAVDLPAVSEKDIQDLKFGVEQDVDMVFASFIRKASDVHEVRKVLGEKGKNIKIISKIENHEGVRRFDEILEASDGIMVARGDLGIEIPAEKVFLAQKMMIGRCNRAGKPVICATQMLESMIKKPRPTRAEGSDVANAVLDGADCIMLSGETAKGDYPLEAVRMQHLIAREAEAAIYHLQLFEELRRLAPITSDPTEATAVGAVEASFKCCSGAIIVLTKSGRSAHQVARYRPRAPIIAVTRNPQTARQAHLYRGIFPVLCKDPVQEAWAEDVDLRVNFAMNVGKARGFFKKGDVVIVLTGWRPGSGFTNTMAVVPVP
T7 sequence (P14618 whole entry W515A): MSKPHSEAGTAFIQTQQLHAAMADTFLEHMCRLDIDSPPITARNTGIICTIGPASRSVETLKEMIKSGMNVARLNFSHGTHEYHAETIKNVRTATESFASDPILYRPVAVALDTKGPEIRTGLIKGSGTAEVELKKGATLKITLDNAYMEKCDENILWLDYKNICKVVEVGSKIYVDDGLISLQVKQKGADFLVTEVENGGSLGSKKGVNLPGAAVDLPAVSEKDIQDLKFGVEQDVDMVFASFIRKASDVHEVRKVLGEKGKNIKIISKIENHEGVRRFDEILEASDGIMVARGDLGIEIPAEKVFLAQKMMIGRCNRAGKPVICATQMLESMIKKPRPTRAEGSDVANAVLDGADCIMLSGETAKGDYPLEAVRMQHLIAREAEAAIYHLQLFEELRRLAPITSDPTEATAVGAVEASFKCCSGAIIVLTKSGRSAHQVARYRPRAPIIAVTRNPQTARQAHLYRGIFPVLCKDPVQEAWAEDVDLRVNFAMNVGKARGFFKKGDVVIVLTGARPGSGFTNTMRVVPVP

binding result [10]: binds
B3: GST-PKM2 fragment F4 (390-531 aa) (domain or fragment, UniProt P14618 390-531, looked up)
chain: YHLQLFEELRRLAPITSDPTEATAVGAVEASFKCCSGAIIVLTKSGRSAHQVARYRPRAPIIAVTRNPQTARQAHLYRGIFPVLCKDPVQEAWAEDVDLRVNFAMNVGKARGFFKKGDVVIVLTGWRPGSGFTNTMRVVPVP
notes: PKM2 residues 390-531, from the pGEX-6P-1 plasmid; also called GST-PKM2 F4; source: E. coli BL21, purified (glutathione S-transferase beads)

binding result [9]: binds
B4: GST-NONO fragment F4 (229-471 aa) (domain or fragment, UniProt Q15233 229-471, looked up)
chain: QLDDEEGLPEKLVIKNQQFHKEREQPPRFAQPGSFEYEYAMRWKALIEMEKQQQDQVDRNIKEAREKLEMEMEAARHEHQVMLMRQDLMRRQEELRRMEELHNQEVQKRKQLELRQEEERRRREEEMRRQQEEMMRRQQEGFKGTFPDAREQEIRMGQMAMGGAMGINNRGAMPPAPVPAGTPAPPGPATMMPDGTLGLTPPTTERFGQAATMEGIGAIGGTPPAFNRAAPGAEFAPNKRRRY
notes: NONO residues 229-471, from the pGEX-6P-1 plasmid; also called GST-NONO F4; source: E. coli BL21, purified (glutathione S-transferase beads)

Second part, the binder before the results:

Binder: B1
binding result [1]: binds | binding result [2]: binds | binding result [3]: binds | binding result [4]: binds | binding result [5]: binds | binding result [6]: binds | binding result [7]: binds | binding result [8]: binds

B2: full-length GST-NONO (natural protein, UniProt Q15233 1-471, looked up)
chain: MQSNKTFNLEKQNHTPRKHHQHHHQQQHHQQQQQQPPPPPIPANGQQASSQNEGLTIDLKNFRKPGEKTFTQRSRLFVGNLPPDITEEEMRKLFEKYGKAGEVFIHKDKGFGFIRLETRTLAEIAKVELDNMPLRGKQLRVRFACHSASLTVRNLPQYVSNELLEEAFSVFGQVERAVVIVDDRGRPSGKGIVEFSGKPAARKALDRCSEGSFLLTTFPRPVTVEPMDQLDDEEGLPEKLVIKNQQFHKEREQPPRFAQPGSFEYEYAMRWKALIEMEKQQQDQVDRNIKEAREKLEMEMEAARHEHQVMLMRQDLMRRQEELRRMEELHNQEVQKRKQLELRQEEERRRREEEMRRQQEEMMRRQQEGFKGTFPDAREQEIRMGQMAMGGAMGINNRGAMPPAPVPAGTPAPPGPATMMPDGTLGLTPPTTERFGQAATMEGIGAIGGTPPAFNRAAPGAEFAPNKRRRY
notes: NONO, full length (fragments run to residue 471), from the pGEX-6P-1 plasmid; also called GST-NONO fusion protein; source: E. coli BL21, purified (glutathione S-transferase beads)
binding result [9]: binds
